From patent US20200079850A1 (SUTRO BIOPHARMA, published 2020)
Blank lines part the entries; values can stand above or below the binder they belong to.

What was measured:
[1] = target: T1, human LAG3 expressed on the cell surface (CHO-LAG3, 293T-LAG3 cells) (human, UniProt P18627 23-525); experiment: flow cytometry cell binding on CHO cells expressing human LAG3; PE anti-human IgG detection; one site-specific binding with Hill slope fit
T1 construct: Stably transfected CHO or HEK293T cells; also called Human LAG3 (CHO); Human LAG3 (293T)
T1 sequence: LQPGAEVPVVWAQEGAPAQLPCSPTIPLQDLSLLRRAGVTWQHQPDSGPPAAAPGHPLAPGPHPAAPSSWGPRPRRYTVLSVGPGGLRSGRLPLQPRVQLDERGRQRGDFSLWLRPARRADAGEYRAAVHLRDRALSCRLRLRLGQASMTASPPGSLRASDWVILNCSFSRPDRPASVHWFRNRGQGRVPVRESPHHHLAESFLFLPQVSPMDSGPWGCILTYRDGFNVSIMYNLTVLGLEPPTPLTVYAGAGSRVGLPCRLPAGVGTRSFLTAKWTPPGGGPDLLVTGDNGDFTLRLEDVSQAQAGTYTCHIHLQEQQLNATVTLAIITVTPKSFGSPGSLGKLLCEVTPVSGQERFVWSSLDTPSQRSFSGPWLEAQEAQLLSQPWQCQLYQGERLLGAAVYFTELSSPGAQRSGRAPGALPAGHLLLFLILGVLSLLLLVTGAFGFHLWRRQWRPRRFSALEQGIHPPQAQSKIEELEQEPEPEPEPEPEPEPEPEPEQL
Experimental: CHO-k cells stably expressing PD-1 or LAG3 (human or cynomolgus) on the cell surface were used to assess binding affinity of anti-PD-1/LAG3 bispecific antibody constructs. Cells were seeded at 100,000 cells/well in 100 μL of FACS buffer (1×PBS, 0.5% BSA, 0.1% sodium azide) in 96-well polypropylene plates. The cells were centrifuged at 1.5K rpm and resuspended with test antibodies diluted in FACS buffer and incubated on ice for 1 hour. The cells were washed twice with FACS buffer and incubated on ice for 30 mins with R-Phycoerythrin-AffiniPure F(ab′)2 Fragment Goat Anti-Human IgG (H+L) secondary detection antibody (1:200 dilution, Jackson ImmunoResearch Laboratories, West Grove, Pa.). The cells were washed twice with FACS buffer, fixed in 4% paraformaldehyde in PBS (Santa Cruz Biotechnology; Dallas, Tex.) for 20 mins on ice in the dark, washed twice with FACS buffer, and analyzed using the BD LSR II Flow Cytometer (BD Biosciences; San Jose, Calif.). Data were analyzed using FlowJo (FlowJo, LLC; Ashland, Oreg.) to determine mean fluorescence intensities. Binding constants were calculated using the statistical software, GraphPad Prism (GraphPad Software; La Jolla, Calif.) using the nonlinear regression equation, one site—specific binding with Hill slope. The secondary antibody by itself was used as a control.

[2] = target: T2, recombinant human LAG3 protein (rhLAG3), HIS-tagged (ACRO) or biotinylated (R&D Cat #2319-C3) (human, UniProt P18627 23-450, biotinylated in part of the assays); experiment: flow cytometry competition: inhibition of biotinylated rhLAG3 binding to MHC class II on Daudi cells; PE-streptavidin detection
T2 sequence: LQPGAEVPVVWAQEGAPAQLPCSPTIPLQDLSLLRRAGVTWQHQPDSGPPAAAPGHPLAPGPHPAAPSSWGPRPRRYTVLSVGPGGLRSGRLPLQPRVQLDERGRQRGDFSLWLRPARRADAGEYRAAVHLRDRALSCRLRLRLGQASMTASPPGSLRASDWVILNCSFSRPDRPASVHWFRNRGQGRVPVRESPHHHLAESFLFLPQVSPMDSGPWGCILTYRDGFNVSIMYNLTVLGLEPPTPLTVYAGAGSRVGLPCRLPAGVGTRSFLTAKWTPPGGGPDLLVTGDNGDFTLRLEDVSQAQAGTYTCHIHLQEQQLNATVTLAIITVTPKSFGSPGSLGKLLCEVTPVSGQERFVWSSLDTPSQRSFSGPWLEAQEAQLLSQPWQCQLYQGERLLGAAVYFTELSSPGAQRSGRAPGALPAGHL
Experimental: Daudi cells expressing Major Histocompatibility Class II (MHCII) molecules, the natural ligand for LAG3, were used to measure the ability of anti-PD1/LAG3 bi-specific antibody constructs to block biotinylated (ThermoFisher, Cat #21329) recombinant human LAG3 protein (rhLAG3, R&D Cat #2319-C3) binding. Cells were seeded at 100,000 cells/well in 100 μL of FACS buffer in 96-well polypropylene plates. The cells were centrifuged and resuspended with test antibodies (2× concentration) diluted in FACS buffer, immediately followed by equal volume of biotinylated rhLAG3 (added at 2× concentration; 7.5 μg/mL final). Cells were incubated on ice for 1 hour and washed twice. Biotinylated rhLAG3 binding was detected with 2 μg/mL R-Phycoerythrin-conjugated Streptavidin (eBioscience) for 30 minutes. Cells were washed twice with FACS buffer, fixed in 4% paraformaldehyde in PBS for 20 mins on ice in the dark, washed twice with FACS buffer, and analyzed using the BD LSR II Flow Cytometer. Data were analyzed using FlowJo (FlowJo, LLC; Ashland, Oreg.) to determine mean fluorescence intensities. Prism 6 software was used to create one site, specific binding with Hill slope curves (Log transform) to determine IC₅₀ values. […]

Bmax [1]: 975 MFI
Kd [1]: 0.4 nM
IC50 [2]: 24 nM
B1: PD-1/LAG3 Bi-specific Construct B: aPD1 1353-G10 scFvFc zwB R28T/P30D/H31S V262E; aLAG3 1449-G09.2 Fab zwA V262E (bispecific antibody, human IgG1, kappa)
scFv: EVQLVQSGAEVKKPGASVKVSCKASGYTFDSYGISWVRQAPGQGLEWMGWISAYNGNTNYAQKLQGRVTMTTDTSTNTAYMELRSLRSDDTAVYYCARDVDYGTGSGYWGQGTLVTVSSGGGGSGGGGSGGGGSSYELTQPPSVSVSPGQTARITCSGDALPKQYAYWYQQKPGQAPVMVIYKDTERPSGIPERFSGSSSGTKVTLTISGVQAEDEADYYCQSADNSITYRVFGGGTKVTVLAAGSDQEPKSSDKTHTCPPCPAPELLGGPSVFLFPPKPKDTLMISRTPEVTCEVVDVSHEDPEVKFNWYVDGVEVHNAKTKPREEQYNSTYRVVSVLTVLHQDWLNGKEYKCKVSNKALPAPIEKTISKAKGQPREPQVYVLPPSREEMTKNQVSLLCLVKGFYPSDIAVEWESNGQPENNYLTWPPVLDSDGSFFLYSKLTVDKSRWQQGNVFSCSVMHEALHNHYTQKSLSLSPGK
heavy: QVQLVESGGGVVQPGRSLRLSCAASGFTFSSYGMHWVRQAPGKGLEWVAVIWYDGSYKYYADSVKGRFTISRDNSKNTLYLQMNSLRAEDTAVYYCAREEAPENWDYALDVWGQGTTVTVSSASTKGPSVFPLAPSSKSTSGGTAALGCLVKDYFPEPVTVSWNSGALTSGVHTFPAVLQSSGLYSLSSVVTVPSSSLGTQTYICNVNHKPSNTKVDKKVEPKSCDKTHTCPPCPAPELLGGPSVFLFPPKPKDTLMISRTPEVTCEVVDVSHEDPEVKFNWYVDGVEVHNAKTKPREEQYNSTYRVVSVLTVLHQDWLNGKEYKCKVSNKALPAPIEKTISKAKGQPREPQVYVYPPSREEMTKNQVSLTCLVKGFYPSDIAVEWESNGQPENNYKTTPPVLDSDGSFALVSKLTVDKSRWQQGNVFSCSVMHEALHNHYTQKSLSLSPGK
light: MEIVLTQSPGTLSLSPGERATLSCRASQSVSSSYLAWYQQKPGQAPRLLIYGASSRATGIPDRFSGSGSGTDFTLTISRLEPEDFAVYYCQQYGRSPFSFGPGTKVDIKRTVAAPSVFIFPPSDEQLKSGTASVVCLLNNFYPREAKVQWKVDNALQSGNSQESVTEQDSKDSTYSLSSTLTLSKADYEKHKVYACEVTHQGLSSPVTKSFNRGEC
notes: The N-terminal Met is not included

Bmax [1]: 1020 MFI
Kd [1]: 0.5 nM
IC50 [2]: 24 nM
B2: PD-1/LAG3 Bi-specific Construct C: aPD1 1353-G10 Vk1-39LC scFvFc zwB V262E; aLAG3 1449-G09.2 Fab zwA V262E (bispecific antibody, human IgG1, kappa)
scFv: EVQLVQSGAEVKKPGASVKVSCKASGYRFPHYGISWVRQAPGQGLEWMGWISAYNGNTNYAQKLQGRVTMTTDTSTNTAYMELRSLRSDDTAVYYCARDVDYGTGSGYWGQGTLVTVSSGGGGSGGGGSGGGGSDIQLTQSPSSLSASVGDRVTITCSGDALPKQYAYWYQQKPGKAPKLLIYKDTERPSGVPSRFSGSSSGTKVTLTISSLQPEDFATYYCQSADNSITYRVFGGGTKVEIKAAGSDQEPKSSDKTHTCPPCPAPELLGGPSVFLFPPKPKDTLMISRTPEVTCEVVDVSHEDPEVKFNWYVDGVEVHNAKTKPREEQYNSTYRVVSVLTVLHQDWLNGKEYKCKVSNKALPAPIEKTISKAKGQPREPQVYVLPPSREEMTKNQVSLLCLVKGFYPSDIAVEWESNGQPENNYLTWPPVLDSDGSFFLYSKLTVDKSRWQQGNVFSCSVMHEALHNHYTQKSLSLSPGK
heavy: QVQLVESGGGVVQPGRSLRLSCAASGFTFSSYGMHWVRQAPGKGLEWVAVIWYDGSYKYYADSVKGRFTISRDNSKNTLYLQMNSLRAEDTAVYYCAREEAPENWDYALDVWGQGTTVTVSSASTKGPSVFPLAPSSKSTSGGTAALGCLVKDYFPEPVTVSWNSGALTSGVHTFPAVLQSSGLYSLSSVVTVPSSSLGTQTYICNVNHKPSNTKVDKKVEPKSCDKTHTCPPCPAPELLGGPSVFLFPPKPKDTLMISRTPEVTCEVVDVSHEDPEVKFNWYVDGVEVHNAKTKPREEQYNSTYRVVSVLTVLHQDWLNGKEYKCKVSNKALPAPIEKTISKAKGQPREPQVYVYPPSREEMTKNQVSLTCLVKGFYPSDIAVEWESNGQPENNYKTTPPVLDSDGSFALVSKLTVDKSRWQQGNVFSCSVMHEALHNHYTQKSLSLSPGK
light: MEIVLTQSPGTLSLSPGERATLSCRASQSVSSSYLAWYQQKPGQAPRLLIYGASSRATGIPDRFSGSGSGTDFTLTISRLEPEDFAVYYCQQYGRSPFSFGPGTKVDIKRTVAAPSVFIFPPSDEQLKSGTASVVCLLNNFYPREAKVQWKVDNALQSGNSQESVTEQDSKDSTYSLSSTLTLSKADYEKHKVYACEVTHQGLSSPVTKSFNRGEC
notes: as for B1
